In experiment [1] the target is T1, GTP-loaded Ras1.G17V (1-172) (fission yeast (Schizosaccharomyces …, UniProt P08647 1-172, G17V)).
T1 sequence (looked up): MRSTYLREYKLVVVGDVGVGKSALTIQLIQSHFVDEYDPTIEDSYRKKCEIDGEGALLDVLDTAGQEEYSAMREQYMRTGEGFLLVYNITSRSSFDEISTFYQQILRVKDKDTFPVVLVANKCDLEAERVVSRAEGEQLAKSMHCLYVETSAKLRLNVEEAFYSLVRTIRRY
The experiment in a line: pull-down.

The target of experiment [2] is T1, GTP-loaded Ras1.G17V (1-172). Nature of the experiment: pull-down. This is another data set of the same source.

The values that follow come from publication doi:10.1101/380220 (bioRxiv, 2019).

Like-named read-outs stand apart in the source and are kept apart here.

B1: GST-Byr2 (65-180) (domain or fragment, UniProt P28829 65-180, looked up)
chain: REFPRPCILRFIACNGQTRAVQSRGDYQKTLAIALKKFSLEDASKFIVCVSQSSRIKLITEEEFKQICFNSSSPERDRLIIVPKEKPCPSFEDLRRSWEIELAQPAALSSQSSLSP
For the molecule B1, the binding result in experiment [1] is “binds”.

B2: GST-Scd1 (760-872) (domain or fragment, UniProt P40995 760-872, looked up)
chain: SSSTSTSLSVRNTTNVKIRLRLHEVSLVLVVAHDITFDELLAKVEHKIKLCGILKQAVPFRVRLKYVDEDGDFITITSDEDVLMAFETCTFELMDPVHNKGMDTVSLHVVVYF
B2: the binding result in experiment [1] is listed as “binds”.

B3: Scd1 (760-872) fragment (domain or fragment, UniProt P40995 760-872, looked up)
chain: SSSTSTSLSVRNTTNVKIRLRLHEVSLVLVVAHDITFDELLAKVEHKIKLCGILKQAVPFRVRLKYVDEDGDFITITSDEDVLMAFETCTFELMDPVHNKGMDTVSLHVVVYF
For B3, in experiment [2], the binding result was “binds”.
